PMC12698673 (Communications Biology, 2025)
Each block holds one binder with its values, some of them ahead of it. Ends that are not written are not given here. * marks the point of attachment. MTSL = CC1(C)C=C(CS*)C(C)(C)N1[O]

B1: CBP-KIX MLLmut (I660A and L664A) (domain or fragment)
chain: not shown
B2: CBP-KIX c-Mybmut (Y650A, A654Q, and Y658A) (domain or fragment)
chain: not shown
B3: FOXO4-CR3 (conserved region 3, transactivation domain of FOXO4, aa 469–505) (domain or fragment, UniProt P98177 469-505, looked up)
chain: DLDLDMYMENLECDMDNIISDLMDEGEGLDFNFEPDP

Key:
[1] = molecular target: B3; assay: ITC
[2] = molecular target: B2; assay: NMR titration
[3] = molecular target: KIX domain of CBP (CBP-KIX, aa 586–672) (UniProt P45481 586-672); assay: ITC
Sequence of KIX domain of CBP (CBP-KIX, aa 586–672) (P45481 586-672): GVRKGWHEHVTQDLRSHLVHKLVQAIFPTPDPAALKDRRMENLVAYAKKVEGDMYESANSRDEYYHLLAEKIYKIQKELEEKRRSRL

[4] = molecular target: B1; assay: ITC
[5] = molecular target: B2; assay: ITC
[6] = molecular target: B2; assay: paramagnetic relaxation enhancement

Binder: B1
dH [1]: -4.58 kcal/mol

Binder: B2
dH [1]: -1.43 kcal/mol

binding result [2]: binds
Binder: DLDLDMYMENLECDMDNIISDLADEGEGLDFNFEPDP (domain or fragment, UniProt P98177 469-505, looked up) [FOXO4-CR3 M491A]

Binder: B3
Kd [3]: 3350 ± 140 nM
Kd [4]: 2760 nM
Kd [5]: 1200 nM

binding result [6]: binds
Binder: DLDLDMYMENLEC(MTSL)DMDNIISDLMDEGEGLDFNFEPDP (domain or fragment, UniProt P98177 469-505, looked up) [FOXO4-CR3 labelled with MTSL at C481]
